# According to the nanobody polyreactivity screen of Harvey et al. (2022):
# Assay: yeast display, Sf9 membrane polyspecificity reagent, FACS + sequencing; frameworks hold sequencing errors
# Summary of the method: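 Nanobodies from a synthetic yeast display library (Saccharomyces cerevisiae BJ5465), induced 36–48 hours with galactose, were stained 1 hour at 4 °C with 10% biotinylated, detergent-solubilized Sf9 membrane reagent, enriched on streptavidin microbeads, then FACS-sorted. Anti-HA (expression) and streptavidin (reagent binding) fluorescence set low and high (top ~1%) gates. Polyreactivity labels come from the gate of origin. Genes were colony-PCR amplified, MiSeq 2 × 250 sequenced and filtered by CDR length.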
row,Sequence,polyreactivity (PSR sort gate)
1,QVQLEESGGGLDQAGGSLRLTCAASGSIFLWNAMGWSRQSPGKERQLVAAISSGTSTIYADSVKGRFTISRDNAKNTVYLQMNSLKREDTAVYYCAARGRKNQRRYGYWGLGTQVTVSS,low polyreactivity
2,QVQLVESGGGLVQAGGSLRLSCAASGSTYVYAMGLYRQAPGKERELVASISWSDSSTYYADSVKGRFTISRDNAKNTVYLQMNSLKPEDTAVYYCNADQGTRDSDYWGQGTQVTVSS,low polyreactivity
3,QVQLVESGGGLVQAGGSLRLSCAHSGFIFCNYAMGWYRHAPGKERELVAAITSGGTSTYYADSVKGRFTISRDNAKNTVYLQMNCLKPEDTAVYFCAAVTGLFSYWDYSAMYYWGQGTQVTVSS,high polyreactivity
4,QDQLVESGGGLVQAGGSLRLSCAASGRTFADYAMGWYRQAPGKERELVAAISWRGGSTYYADSVKGRFTISRDNAKNTVYLQLNSLNPEDTAVYYCNKAYPADYDYWGQGTQVTVSS,low polyreactivity
5,QVQLVESGGGLVQAGGSLRLSCAASGRIFRSNAMGWYRQAPGKERELVAVINSDDSTYYADSVKGRFTISRDNAKNTVYLQMNCLKPEDTAVYYCAAEPQYTRHMDSWGQGTQVTVSS,low polyreactivity
6,QVQLVESGGGLVQAGGSLRLSCAASGRIFTTYAMGWYRQAPGKERELVAAISRSGGSTYYADSVKGRFTISRDNAKNTVYLQMNSLKPEDTAVYYCAAVPTSNSFRSSFYYWGQGTQVTVSS,high polyreactivity
7,QVQLVESGGGLVQAGGSLSLSCAASGIIFGRNALGWYRQAPGKEREMVAGITRRGARTYYADSVKGRFTISRDNAKNTVDLQMNSLKPEDTAVYYCATYSVQTDYGRGDYWGQGTQVTVSS,high polyreactivity
8,QVQLVESGGGLVQAGGSLRLICAASGRTFRSYAMGWYRQAPGKERELVAAISWSGGSTYYADSVKGRFTISRDNAKNTVYLQMNSLKPVDTAVYYCAAEVYYTYVYILDYWGQGTQVTVSS,high polyreactivity
9,QVQLVESGGGLVQAGGSLRLSCAASGSTFVKSAMGLYRQAPGKERELVAAINWSGGNTYYADSVKGRFKISRYNAKNTVYLQMNSLKPEETAVYYCNADAYRSDFDYWGQGTQVTVSS,high polyreactivity
10,QVQLVESGGGLVQAGGSLRLSCAASGFTFRYNAMGWYRKPPGKERELVAAITSGGNTNYADSVKGRFTISRDNAKNTVYLQMNSLKPEDTAVYYCNTAWRDYVARLGGVGYDYWGQGTQVTVSS,high polyreactivity
11,QVQLVESGGGLVQAGGSLRLSCAASGSIFWQNAMGWYRQAPGKERELVARITSGGSTNYADSVKGRFTISRDNAKNTFYLQMNSLKPEDTGVYYCNRVRYRSYFAYYYWGQGTQVTVSS,high polyreactivity
12,QVLLVESGGGLVQAGGSLRLSCAASGFTFQLYAMGWYRQAPGKEREIVSAIRRNGGSTYYADSVKGRFTISRDNAKNTVYLQMNSLKPDDTAVYYCAADWYSYLHGTKYGYWGQGTQVTVSS,high polyreactivity
13,QVQLVESGGGLVQAGGSLRLSCAASGSTLYRYAMGWYRQAPGKERELVATIRWSGGSTYYADSVKGRFTISRDNAKNTVYLQMNSLKPEDTAVYYCAKRSSYGSSGRYYYWGQGTQVTVSS,high polyreactivity
14,QVQLVESGGCLVQAGGSLRLSCAASGFTFSNYAMGWYRQPPGKESEFVAAISGTGGSTYYADSVKGRFTISRVNAKNTVYLQMNSLKPEDTAVYYCARRRTYPPGRYYYWGQGTQVTVSS,high polyreactivity
15,QVQLVESGGGLVQAGGSLRLSCAASGRTLTKYVMGWYRQAPGKEREFVAAISSSGDSTYYADSVKGRFTISRDNAKNPVYLQMNSLKQEDTAVYYCAKYDRNTYCYWGQCTQVTVSS,low polyreactivity
16,QVQLVESGGGLVQAGGSLRLSCAASGSTFYKYAMGWYRQAPGKERELVASISRRAGSTYYADSVKGRFTISRDNAKNTVYLQMNSLKPEDTAVYYCAAVGRYDRVFDYDYWGQGTQVTVSS,high polyreactivity
17,QVQLVESGGGLVQAGGSLRLSCAASGRTFGYYTMGWYRQAPGKERELVAAISWNGDDTYYADSVKGRFTISRDNAKNTVYLQMNSLKPEDTAVYYCAKDFLGNYYWTDVYTYGGEGDYWGQGTQVTVSS,low polyreactivity
18,QVKLVESGGGLVQAGGSLRLSCAASGLIFQKYAMGWYRQPPGKERELVAAISGGGRTYYADSVKGRFTISRDNSKNTVYLQMNSMKPEDTAVYYCAVYWYYLGYYYYYDFDYWGQGTQVTVSS,high polyreactivity
19,QVQLVESGGGLVQAGGSLRLSCAASGRIFGSYAMVWYRQVPGKERELVAASNWRGGSTFYADSVKGRFTISRDIAKNTVFLQMNSLKPDDNAVYYCSRRVYPQSCDNWGQGTQLTVSS,low polyreactivity
20,QVQLVESGGGLVQAGGSLRLSCAASGRTFRPYAMGWYRQAPGKERELVAAIDSSGTSTYYADSVKGRFTISRDNAKNTVYLQMNCLKPEDTAVYYCNTSLKRRRLRFNYWGQGTQVTVSS,low polyreactivity
21,QVQLEDSGGGLVQAGGSLRLSCAASGATFDGYTMAWYRQAPGKERELVAAISWRGTSTYYADSVKGRFTISRDNAKNTVYLQMNSLKPDDTAVYYCAADAYSGYDYWGQGTQVNVSS,low polyreactivity
22,QVQLLESGGGLVQAGGSLRLSFAASGSTSRKYAMGLYRQAPGKERVLVAGITKGGGGTYYADSVKGRFTISRDNAKNTVYLLMNSLKPEDTAVYYCAKYYGSGYYIYDYWGLGTQVTVSS,low polyreactivity

row,Sequence,polyreactivity (PSR sort gate)
1,QVQLVESGGGLVQAGGSLRLSCAASGSMFFWYVMGWYRQAPGKERELVASISSGGSTYYADSVKGRFTISRDNAKNTVYLQMNSLKPEDTAVYYCNAKSWSPAKSFSFFRFDYWGQGTQETVSS,low polyreactivity
2,QVQLVESGGGLVQAGGSLRLSCAASGFIFGDYAMGWYRPAPGKERELVAAITWSGDGTYYADSVKGRFTISRDNAKNTVYLQMNSLKPEDTAVYYCAADFSPRRYHNRSFGYWGQGTQVTVSS,low polyreactivity
3,QVQLVESGGGLVQAGGSLRLSCAASGSIFFPYAMGWYRQATGKERELVASINSGGITTYADSVKGRFTISRDNAKNTVYLQMNSLKPEDTAVYYCARYVSYRWVRYNYWGQGTQVTVSS,high polyreactivity
4,QVQLVESGGGLVQAGGSLRLSCAASGRTFQYYAMGWYRQAPGKERELGAAISGIGTSTSYADSVKGRFTISRDNAKNTVYLQMNSLKPEDTAVYYCAARLLVPGSPWYTNYYWGQGTQVTVSS,low polyreactivity
5,QVQLVESGGGLVQAGGSLRLSCAASGSIFRYNAMGWYRQAPGKERELVAAISWSGGSTYYADSVKGRFTISRDNAKNTVYLQMNSLKPEDTAVYYCATRYYVNVPGRRYGYWGQGTQVTVSS,low polyreactivity
6,QVQLVESGGGLVQAGGSLRLSCADSGSIFKYYVMGWYRQAPGKERELVADITSGGSTKYADSVKGRFTISRDNAKNTVYLQMNSLKPADTAVYYCAASWWYEIFDYWGQGTQVTVSS,low polyreactivity
7,QVQLVESGGGLVQAGGSLRLSCAASGSIFYHNAMGWYSPAPGKERELVAAISASGSTYYADSVKGRFTISRDNAKNTVSLQMNSLKTEDTAVYYCTFYWYNYWGQGTQVTVSS,high polyreactivity
8,QVQLVESGGGLVQAGGSLRLSCAASGRIFYYYMAWYRHAPGKERELVAAITRGGGTYADSVKGRFTISRDNAKNTVYLQMNSLKPEDTAVYYCAAYPRGARRLDYWGQGTQVTVSS,high polyreactivity
9,QVQLVESGGGLVQAGGSLRLSCAPSGRIFTPYAMGWYRQAPGKERELVAVIRDGSTYYADSVKGRFTISRDNAKNTVYLKMNSLKPEDTAVYYCRYDIWVWWSGAYDYWGQGTQVNVSS,low polyreactivity
10,QVQLVESGGGLVQAGGSLRLSCAASRRIFYGYAMGWYRQAPGKERELVAAISLRTGSTFYADSVKGRFTISRDNAMNTVYLQMNSLKPEDTAVYYCAKEESYRPYIYVMDYWGQGTQVTVSS,low polyreactivity
11,QVQLVESGGGLVQAGGSLRLSCAASGIISGRTGMGWYRQATGKERELVASISDSGSSTYYADSVKGRFTISRDNAKNTVYLQMNSLKPEDTAVYYCATDLLASRYGYWGQGTQVTVSS,low polyreactivity
12,QVQLVESGGGLVQAGGSLRLSCAASGYIFLTNAMGWYRQAPGKEREWVAAISVSGGRTYYADSVKGRFTISRDNAKNTVYLQMNSLKPEDTAVYYCNTLLTYGYDYWGQGTQVTVSS,low polyreactivity
13,QVQLVESGGGLVQAGGSLRLSCAASGFTFRLYTMGWYRQAPGKDRELVAGISTSGGSTYYADSVKGRFTISRDNAKNTVYLQMNSLKPEDTAVYYCAAQAFTSYDYWGQGTQVTVSS,high polyreactivity
14,QVQLVESGGGLVQAGGSLRLSCAASGFTFRRYAMGWYRQAPGKERELVAAISRSGGRTYYADSVKGRFTISRDNAKNTVYLQMNSLKPEDTAVYYCAARYFKPGGAYDSWGQGTQVTVSS,high polyreactivity
15,QDQLVDSGGGLVQAGGSLSLICAATGLIFNRNAMGWYRQAPGKERELVASISSGGRTNYADSVKGRFTISRDNAKNTVYLQMNSLKPEDTAVYYCAAKSPRILLDYWGQGTQVTVSS,low polyreactivity
16,QVQLVESGGGLVQAGGSLSLSCAATGRTFYHYVMGWYRQAPGKERELVAAISVSGGRTYYADSVKGRFTISRDNAKNTVYLQMNSLKPEDTAVYYCNARYGHRVRKEAGLSYYWGQGTQVTVSS,high polyreactivity
17,QVQPQESGGGLVQAGGSLRLRCAASGTIFAFQTMGSYRQAPGKERELVASITYGSSTNYADSVKGRFTISRDNAKNTVYLQMNSLKPEDTAVFYCAVPQAQYYYDYWGQGTQVTVSS,high polyreactivity
18,QVQLVDSGGGLVQAGASLRLRCAASVLTLYANAMGRYRQAPGKERELVAGIDNGGSTSYADSVKGRFTISRDNAKKTVYLQKNSLKPEDTAVYYCAAQRDSVGGRHYAQRWIYLMYYWGQGTQVTVSS,low polyreactivity
19,QVQLLESGGGLVQAGGSLRLTCAASGRTFGRYAKGWYRQAPGKERELVADITGGGSTNYADSVKGRFTISRDNAKNTVYLQMKSLKPEDTAVYYCAAGFHKRVTPEILYDYWGQGTQVTVSS,low polyreactivity
20,QVQLVESGGGLVQAGGSLRLSCAASGRNFAWYAMGWYRQAPGKEREFVAAITYRAARTYYADSVKGRFTISRDNAKNTVYLQMNSLKPEDTAVYYCNAVGFDQPRYYYWGQGTQVTVSS,high polyreactivity
21,QVQLVESGGGLVQAGGSLRLSCAASGSTFEPYAMGWYRQAPGKERELVAAISWSGGSTYYADSVKGRFTISRDNAKNTVYLQMNSLQPEDTAVYYCAAESGVPYYLPVVIYYYWGQGTQVTVSS,high polyreactivity
